# From patent publication US20110052582A1 (Hoffmann-La Roche, published 2011)
# T1: Soluble CDCP1 extracellular domain (CDCP1-ECD) (SEQ ID NO:30) fused to Streptavidin Binding Protein (SBP) (human, UniProt Q9H5V8 30-663)
# T1 construct: also called SBP-CDCP1-ECD
# T1 sequence: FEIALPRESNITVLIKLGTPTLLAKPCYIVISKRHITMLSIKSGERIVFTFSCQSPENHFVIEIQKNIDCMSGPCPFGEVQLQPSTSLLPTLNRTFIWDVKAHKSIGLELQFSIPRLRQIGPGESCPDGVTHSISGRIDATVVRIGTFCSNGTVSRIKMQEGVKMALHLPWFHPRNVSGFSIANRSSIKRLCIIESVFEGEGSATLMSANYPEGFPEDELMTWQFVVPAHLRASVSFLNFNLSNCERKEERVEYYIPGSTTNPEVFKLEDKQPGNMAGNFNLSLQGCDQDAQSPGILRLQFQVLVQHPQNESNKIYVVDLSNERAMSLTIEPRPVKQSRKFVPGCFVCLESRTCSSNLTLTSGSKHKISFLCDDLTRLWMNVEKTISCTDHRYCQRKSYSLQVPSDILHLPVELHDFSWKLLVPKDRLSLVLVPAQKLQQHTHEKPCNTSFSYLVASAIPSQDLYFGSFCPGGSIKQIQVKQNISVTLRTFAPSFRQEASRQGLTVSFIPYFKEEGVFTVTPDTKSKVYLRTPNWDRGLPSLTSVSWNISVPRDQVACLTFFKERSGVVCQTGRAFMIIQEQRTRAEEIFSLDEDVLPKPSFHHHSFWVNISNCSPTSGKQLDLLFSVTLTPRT
# T2: extracellular-domain-(ECD)-comprising fragment of human CDCP1 of SEQ ID NO: 30 (human, UniProt Q9H5V8 30-663)
# T2 construct: also called CDCP1 ECD; CDCP1-ECD
# T2 sequence: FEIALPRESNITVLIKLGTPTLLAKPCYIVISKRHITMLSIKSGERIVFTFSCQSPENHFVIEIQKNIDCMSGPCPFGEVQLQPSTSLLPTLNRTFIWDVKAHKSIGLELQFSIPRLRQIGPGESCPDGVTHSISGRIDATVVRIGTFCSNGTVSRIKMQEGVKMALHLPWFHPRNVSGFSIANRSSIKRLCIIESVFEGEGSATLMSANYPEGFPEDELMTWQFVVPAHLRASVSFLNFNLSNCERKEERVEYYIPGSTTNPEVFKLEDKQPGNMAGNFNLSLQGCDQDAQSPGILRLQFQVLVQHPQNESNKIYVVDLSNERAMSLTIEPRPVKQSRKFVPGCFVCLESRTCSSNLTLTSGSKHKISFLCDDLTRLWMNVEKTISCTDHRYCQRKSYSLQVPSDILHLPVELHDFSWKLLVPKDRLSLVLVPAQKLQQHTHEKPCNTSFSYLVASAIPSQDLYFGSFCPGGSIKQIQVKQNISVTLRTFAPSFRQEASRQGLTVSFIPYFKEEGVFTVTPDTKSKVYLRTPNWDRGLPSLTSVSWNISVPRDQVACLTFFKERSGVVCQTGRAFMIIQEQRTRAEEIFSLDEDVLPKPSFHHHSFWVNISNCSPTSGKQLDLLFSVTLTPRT
# T3: Human CDCP1 (CUB domain containing protein 1) on DU-145 cells (human, UniProt Q9H5V8 30-836)
# T3 sequence: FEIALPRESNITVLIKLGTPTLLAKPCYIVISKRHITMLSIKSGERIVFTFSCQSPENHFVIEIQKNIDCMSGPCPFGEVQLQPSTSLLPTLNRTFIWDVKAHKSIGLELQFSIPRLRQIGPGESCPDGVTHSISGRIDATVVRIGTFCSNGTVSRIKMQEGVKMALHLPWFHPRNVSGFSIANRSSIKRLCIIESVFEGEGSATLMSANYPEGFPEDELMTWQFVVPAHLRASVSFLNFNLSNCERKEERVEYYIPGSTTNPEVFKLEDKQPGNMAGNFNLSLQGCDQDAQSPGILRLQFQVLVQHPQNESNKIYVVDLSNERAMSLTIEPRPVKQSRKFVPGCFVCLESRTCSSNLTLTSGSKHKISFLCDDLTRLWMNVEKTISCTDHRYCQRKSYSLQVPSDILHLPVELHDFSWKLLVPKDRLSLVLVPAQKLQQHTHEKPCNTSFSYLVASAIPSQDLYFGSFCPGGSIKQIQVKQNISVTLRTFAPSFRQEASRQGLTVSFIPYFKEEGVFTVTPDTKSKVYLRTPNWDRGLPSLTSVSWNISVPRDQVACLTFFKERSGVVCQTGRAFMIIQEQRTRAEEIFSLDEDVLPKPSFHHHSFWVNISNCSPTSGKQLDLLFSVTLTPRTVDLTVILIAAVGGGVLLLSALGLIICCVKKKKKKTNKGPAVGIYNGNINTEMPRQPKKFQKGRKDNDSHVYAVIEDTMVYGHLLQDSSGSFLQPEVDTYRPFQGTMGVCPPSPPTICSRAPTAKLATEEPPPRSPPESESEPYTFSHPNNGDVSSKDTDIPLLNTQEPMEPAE
# How the values were obtained:
# [1] = target: T1, Soluble CDCP1 extracellular domain …; assay: ELISA on captured SBP-CDCP1-ECD, ratio relative to chimeric CUB4 (chHC4)
# Summary of the method: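 Streptavidin plates coated overnight at 2–8° C with SBP-CDCP1-ECD HEK293 supernatant (1:15–1:40). Antibodies, undiluted or 12-step dilution, bound 90 min at room temperature; HRP anti-human IgG 1 h, ABTS read at 405/492 nm, signal expressed relative to chimeric chHC4 reference.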
# [2] = target: T2, extracellular-domain-(ECD)-comprising …; assay: SPR (Biacore T100), antibody captured, CDCP1 ECD as analyte, 25 C, Langmuir 1:1
# Protocol: After conjugation, different anti-CDCP1 antibodies were injected at 25° C. at a flow rate of 5 μL/min, followed by a dilution series (0 nM to 1000 nM) of CDCP1 ECD at 30 μL/min. As running buffer for the binding experiment PBS/0.1% BSA was used. The chip was then regenerated with a 60s pulse of 10 mM glycine-HCl, pH 2.0 solution.
# Calculation of thermodynamic parameters (KD, binding constant) and kinetic parameters (kₒₙ rate, koff rate) were calculated using a Langmuir 1:1 binding model.
# [3] = target: T3, Human CDCP1 (CUB domain containing …); assay: cell-based or functional assay
Binder,relative binding ratio [1],Kd [2] [nM],koff [2] [s⁻¹],kon [2] [M⁻¹ s⁻¹],t½ diss. [2] [min],"Percent (%) stimulation of CDCP1 phosphorylation in DU-145 cells (Western blot, densitometry) [3] [%]"
"Humanized CUB4 Antibody No. 69 (antibody, IgG1, V domains shown, Human constant region; also called Antibody 69; hHC4-H / hLC-L2) VH: EVQLVESGGGLVQPGGSLRLSCAASGFTFNSYGMSWVRQAPGKGLEWVATISSGGSYKYYVDSVKGRFTISRDNAKNSLYLQMNSLRAEDTAVYYCARHPDYDGVWFAYWGQGTLVTVSS VL: EIVLTQSPATLSLSPGERATMSCSVSSSVFYLHWYQQKPGQAPRLWIYDTSKLASGIPARFSGSGSGTDFTLTISSLEPEDFAVYYCQQWNSNPPTFGGGTKVEIK",0.69,2.55,0.00052,210000,22.1,112
"Humanized CUB4 Antibody No. 47 (antibody, human IgG1, V domains shown, Only variable domains are tied to the antibody; also called humanized anti-CDCP1 antibody 47; hHC4-H / hLC-K) VH: EVQLVESGGGLVQPGGSLRLSCAASGFTFNSYGMSWVRQAPGKGLEWVATISSGGSYKYYVDSVKGRFTISRDNAKNSLYLQMNSLRAEDTAVYYCARHPDYDGVWFAYWGQGTLVTVSS VL: EIVLTQSPATLSLSPGERATLSCRASSSVFYLHWYQQKPGQAPRLWIYDTSKLASGIPARFSGSGSGTDFTLTISSLEPEDFAVYYCQQWNSNPPTFGGGTKVEIK",0.46,3.77,0.00075,200000,15.4,96

# More lines, now with the values ahead:
relative binding ratio [1],Kd [2] [nM],koff [2] [s⁻¹],kon [2] [M⁻¹ s⁻¹],t½ diss. [2] [min],"Percent (%) stimulation of CDCP1 phosphorylation in DU-145 cells (Western blot, densitometry) [3] [%]",Binder
0.47,8.3,0.0011,140000,10.3,72,"Humanized CUB4 Antibody No. 135 (antibody, IgG1, V domains shown, Human constant region, preferably IgG1; also called Antibody 135; hHC4-H / hLC-e) VH: EVQLVESGGGLVQPGGSLRLSCAASGFTFNSYGMSWVRQAPGKGLEWVATISSGGSYKYYVDSVKGRFTISRDNAKNSLYLQMNSLRAEDTAVYYCARHPDYDGVWFAYWGQGTLVTVSS VL: DIQMTQSPSSLSASVGDRVTITCSVSSSVFYVHWYQQKPGKAPKLLIYDTSKLASGVPSRFSGSGSGTDFTFTISSLQPEDIATYYCQQWNSNPPTFGGGTKVEIK"
0.56,3.53,0.00088,250000,13.1,133,"Humanized CUB4 Antibody No. 80 (antibody, IgG1, V domains shown, Only variable domains are tied to the antibody; Human constant region, preferably IgG1; also called hHC4-H / hLC-M) VH: EVQLVESGGGLVQPGGSLRLSCAASGFTFNSYGMSWVRQAPGKGLEWVATISSGGSYKYYVDSVKGRFTISRDNAKNSLYLQMNSLRAEDTAVYYCARHPDYDGVWFAYWGQGTLVTVSS VL: EIVLTQSPATLSLSPGERATMSCGASSSVFYLHWYQQKPGLAPRLWIYDTSKLASGIPDRFSGSGSGTDFTLTISRLEPEDFAVYYCQQWNSNPPTFGGGTKVEIK"
